One substance from publication PMC7168832 can be followed below.

In experiment [1] the target is prohibitin isoform 1 (human (endogenous in SH-SY5Y, U-87 MG, CHME-3)) (UniProt P35232).
Experiment [2] addresses prohibitin-2 isoform 1 (human (endogenous in SH-SY5Y, U-87 MG, CHME-3)) (UniProt Q99623).
Experiment [3] deals with prohibitin isoform 1 (human (endogenous in SH-SY5Y, U-87 MG, CHME-3)) (UniProt P35232). The source holds these as a separate data set.
Experiment [4] concerns the target prohibitin-2 isoform 1 (human (endogenous in SH-SY5Y, U-87 MG, CHME-3)) (UniProt Q99623). This is another data set of the same source.
For experiment [5] the target is unchanged. This is another data set of the same source.

Sequence of UniProt Q99623 (Q99623 whole entry, canonical isoform): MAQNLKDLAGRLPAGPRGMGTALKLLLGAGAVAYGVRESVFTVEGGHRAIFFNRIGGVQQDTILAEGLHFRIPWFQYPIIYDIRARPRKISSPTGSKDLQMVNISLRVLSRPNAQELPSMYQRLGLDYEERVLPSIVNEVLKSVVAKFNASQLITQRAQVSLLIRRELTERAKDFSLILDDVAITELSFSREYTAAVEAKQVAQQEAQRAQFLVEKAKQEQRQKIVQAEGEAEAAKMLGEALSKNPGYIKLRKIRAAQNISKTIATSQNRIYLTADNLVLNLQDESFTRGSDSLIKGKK
Sequence of UniProt P35232 (P35232 whole entry, canonical isoform): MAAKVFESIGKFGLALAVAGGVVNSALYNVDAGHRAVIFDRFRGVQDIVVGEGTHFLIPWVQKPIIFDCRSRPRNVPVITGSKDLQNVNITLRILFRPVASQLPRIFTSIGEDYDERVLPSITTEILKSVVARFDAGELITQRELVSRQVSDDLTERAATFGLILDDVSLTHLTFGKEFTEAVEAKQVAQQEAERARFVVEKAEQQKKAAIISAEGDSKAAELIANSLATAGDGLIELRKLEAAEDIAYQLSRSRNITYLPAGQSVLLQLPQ

On to “DENV-3 (16562), purified virus (complex)”, for which the % fluorescent (DENV-3 antigen) positive SH-SY5Y cells by IFA 30 h PI, cells pre-incubated with anti-PHB1 antibody, 1 to 2 μg (17 to 10%; virus control 40%, anti-actin control 35%) in experiment [1] was 17%. In experiment [2], this substance came in with a % fluorescent (DENV-3 antigen) positive SH-SY5Y cells by IFA 30 h PI, cells pre-incubated with anti-PHB2 antibody, 1 to 2 μg (11 to 6%; virus control 40%, anti-actin control 35%) of 11%. In experiment [3], this substance gave a reduction in DENV-3 plaques, CHME-3 cells pre-incubated with PHB1 antibody of 73.3% and a reduction in DENV-3 plaques, SH-SY5Y cells pre-incubated with anti-PHB1 antibody of 55%. In experiment [4], this substance yielded a reduction in DENV-3 plaques, CHME-3 cells pre-incubated with PHB2 antibody of 82.2% and a reduction in DENV-3 plaques, SH-SY5Y cells pre-incubated with anti-PHB2 antibody of 75%. In addition, the entry assay: reduction in virus titre, CHME-3 cells with bound DENV-3 (MOI 100) treated with PHB2 polyclonal antibody at 37 °C for 1.5 h in experiment [5] was 82%.
